According to patent US20120201828A1 (Sanofi, published 2012):

Columns and labels:
[1] = biological target: T1, EphA2 receptor on tumor cells (human, UniProt P29317 24-976); assay: cell-based or functional assay
[2] = biological target: T1, EphA2 receptor on tumor cells; assay: cell-based or functional assay; remark: listed apart in the source
[3] = biological target: T1, EphA2 receptor on tumor cells; assay: cell-based or functional assay; remark: listed apart in the source
huEphA2-mFc = biological target: T2, huEphA2-mFc (human, UniProt P29317 24-534, limits assumed); assay: SPR, Biacore 3000; EphA2-Fc amine-coupled on C1 chip, IgG in flow, 25 C, 1:1 Langmuir fit
T2 construct: Immobilised antigen of the Biacore experiment; also called EphA2-Fc; extra-cellular domain of EphA2 receptor-Fc; not shown: mouse Fc (mFc)
Description: pH=4.5) was coupled to the matrix of a C1 sensor chip (GE healthcare BR-1005-40) at 10 μl/min using a standard amine coupling protocol with EDC (N-ethyl-N′-[dimethyl-aminopropyl]carbodiimide)/NHS (N-hydroxysuccinimide). The density was controlled at an increased response level of ˜100 response units (RU) in kinetic binding experiments. IgGs were diluted in 0.01 M Hepes, pH 7.4 containing 0.15 M NaCl, 3 mM EDTA, and 0.005% P20. All subsequent dilutions were made in the same buffer. All binding experiments were performed at 25° C. with IgG concentrations typically ranging from 50 to 0.2 nM at a flow rate of 50 μl/min.
Data were collected for approximately 12 min (2 min association time and 10 min dissociation time) and 1 min pulse at 30 μl/min of 1M NaCl, 50 mM NaOH was used to regenerate the surfaces. IgGs were also flowed over an uncoated cell and the sensorgrams from the blank runs were substracted from those obtained with EphA2-Fc coupled chips. Data were fitted to a 1:1 Langmuir binding model with drifting baseline. This algorithm calculates both the kₒₙ and the koff, from which the apparent equilibrium dissociation constant KD, is deduced as the ratio of the two rate constants (koff/kₒₙ).
The affinity constant was first measured with both naked hu2H11 and hu2H11R35R74.

T1 sequence (P29317 24-976): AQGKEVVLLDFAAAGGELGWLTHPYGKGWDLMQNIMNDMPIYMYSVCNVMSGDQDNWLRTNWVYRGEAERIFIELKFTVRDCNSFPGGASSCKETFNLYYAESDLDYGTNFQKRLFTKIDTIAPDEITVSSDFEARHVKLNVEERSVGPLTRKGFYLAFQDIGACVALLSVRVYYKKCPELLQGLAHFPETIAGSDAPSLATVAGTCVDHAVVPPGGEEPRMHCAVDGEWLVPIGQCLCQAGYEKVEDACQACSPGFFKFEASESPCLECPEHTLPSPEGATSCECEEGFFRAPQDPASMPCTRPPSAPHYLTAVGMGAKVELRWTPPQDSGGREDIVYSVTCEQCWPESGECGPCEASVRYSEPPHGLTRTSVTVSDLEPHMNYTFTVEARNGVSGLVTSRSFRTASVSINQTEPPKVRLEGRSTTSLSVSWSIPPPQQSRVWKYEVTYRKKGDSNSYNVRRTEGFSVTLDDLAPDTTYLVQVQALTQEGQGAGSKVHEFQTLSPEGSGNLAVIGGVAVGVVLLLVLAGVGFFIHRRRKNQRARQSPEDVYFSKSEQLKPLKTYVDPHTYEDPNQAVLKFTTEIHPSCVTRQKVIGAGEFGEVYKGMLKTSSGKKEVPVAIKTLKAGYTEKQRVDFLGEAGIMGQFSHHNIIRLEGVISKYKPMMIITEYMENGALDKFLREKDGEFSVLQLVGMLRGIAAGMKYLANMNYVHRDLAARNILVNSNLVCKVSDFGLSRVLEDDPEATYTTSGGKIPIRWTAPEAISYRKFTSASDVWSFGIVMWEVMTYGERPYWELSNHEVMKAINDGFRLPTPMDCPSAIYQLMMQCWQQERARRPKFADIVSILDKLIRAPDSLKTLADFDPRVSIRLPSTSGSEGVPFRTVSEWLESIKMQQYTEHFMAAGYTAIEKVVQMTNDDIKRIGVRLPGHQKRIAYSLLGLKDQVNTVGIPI
T2 sequence (P29317 24-534 limits assumed): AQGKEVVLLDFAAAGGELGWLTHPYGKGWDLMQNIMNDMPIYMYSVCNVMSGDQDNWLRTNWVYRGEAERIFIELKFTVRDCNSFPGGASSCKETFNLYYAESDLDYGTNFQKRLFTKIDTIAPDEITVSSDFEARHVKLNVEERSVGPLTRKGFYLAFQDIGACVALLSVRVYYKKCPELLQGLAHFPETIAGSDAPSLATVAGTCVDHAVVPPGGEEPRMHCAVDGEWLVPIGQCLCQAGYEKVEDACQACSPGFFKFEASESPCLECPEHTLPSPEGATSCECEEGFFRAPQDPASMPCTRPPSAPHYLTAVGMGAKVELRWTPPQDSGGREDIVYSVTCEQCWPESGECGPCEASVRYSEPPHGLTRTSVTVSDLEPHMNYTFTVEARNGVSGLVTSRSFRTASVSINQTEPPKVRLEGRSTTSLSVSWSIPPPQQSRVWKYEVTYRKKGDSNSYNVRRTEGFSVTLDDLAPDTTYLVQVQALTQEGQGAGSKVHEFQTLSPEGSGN

Binder	MDA-MB231 + naked 2H11 (1 uM) IC50 (nM), 14C thymidine uptake [1]	MDA-MB231 IC50 (nM), 14C thymidine uptake [1]	Ratio of IC50s (with naked 2H11 / alone) on MDA-MB231 [1]	IC50 (pM), + naked hu2H11R35R74 (1 uM), MDA MB231 cells [3]	IC50 (pM), ADC alone, MDA MB231 cells, 14C thymidine uptake [3]	ratio of IC50s (+ naked hu2H11R35R74 / ADC alone) [3]	other results
hu2H11-SPDB-DM4 (DAR 3.93) (antibody, V domains shown, DM4 through SPDB linker on lysine residues, sites not given; average DAR 3.93) VH: QVQLVQSGAEVVKPGASVKISCKASGYTFTAYYMHWVKQSPVQSLEWIGLVNPYNGFSSYNQKFQGKASLTVDKSSSTAYMELHSLTSEDSAVYYCAREFYGYRYFDVWGQGTAVTVSS VL: not shown	8.1 nM	1.1 nM	7				
hu2H11-PEG4-NHAc-DM4 (DAR 5.3) (antibody, V domains shown, DM4 through PEG4-NHAc linker on lysine residues, sites not given; average DAR 5.3) VH: QVQLVQSGAEVVKPGASVKISCKASGYTFTAYYMHWVKQSPVQSLEWIGLVNPYNGFSSYNQKFQGKASLTVDKSSSTAYMELHSLTSEDSAVYYCAREFYGYRYFDVWGQGTAVTVSS VL: not shown	27.4 nM	0.2 nM	114				
hu2H11R35R74-PEG4-Mal-DM4 (DAR 6.70) (antibody, V domains shown, DM4 through PEG4-Mal linker on lysine residues, sites not given; average DAR 6.70) VH: QVQLVQSGAEVVKPGASVKISCKASGYTFTAYYMHWVKQSPVQSLEWIGLVNPYNGFSSYNQKFQGKASLTVDRSSSTAYMELHSLTSEDSAVYYCAREFYGYRYFDVWGQGTAVTVSS VL: not shown							IC50 (M), cytotoxic activity on Lovo cells (WST8, 5 days) [2]: 7.96e-11 M
hu2H11-R35R74-PEG4-AcNH-DM4 (DAR 5.9) (antibody, V domains shown, DM4 through PEG4-AcNH linker on lysine residues, sites not given; average DAR 5.9) VH: QVQLVQSGAEVVKPGASVKISCKASGYTFTAYYMHWVKQSPVQSLEWIGLVNPYNGFSSYNQKFQGKASLTVDRSSSTAYMELHSLTSEDSAVYYCAREFYGYRYFDVWGQGTAVTVSS VL: not shown				29700 pM	147 pM	202	
hu2H11R35R74-PEG4-NHAc-DM4 (DAR 5.5) (antibody, V domains shown, DM4 through PEG4-NHAc linker on lysine residues, sites not given; average DAR 5.5) VH: QVQLVQSGAEVVKPGASVKISCKASGYTFTAYYMHWVKQSPVQSLEWIGLVNPYNGFSSYNQKFQGKASLTVDRSSSTAYMELHSLTSEDSAVYYCAREFYGYRYFDVWGQGTAVTVSS VL: not shown	80.8 nM	0.06 nM	1350				
hu2H11-R35R74-Acetyl-DM4 (DAR 6.5) (antibody, V domains shown, DM4 through Acetyl linker, sites not given; average DAR 6.5) VH: QVQLVQSGAEVVKPGASVKISCKASGYTFTAYYMHWVKQSPVQSLEWIGLVNPYNGFSSYNQKFQGKASLTVDRSSSTAYMELHSLTSEDSAVYYCAREFYGYRYFDVWGQGTAVTVSS VL: not shown				19500 pM	185 pM	105	
hu2H11R35R74-PEG4-NHAc-DM4 (D/A 7.4) (antibody, V domains shown, DM4 through PEG4-NHAc linker on lysine residues, sites not given; average D/A 7.4 per antibody, Antibody-drug conjugate of hu2H11R35R74; constant regions as for m2) VH: QVQLVQSGAEVVKPGASVKISCKASGYTFTAYYMHWVKQSPVQSLEWIGLVNPYNGFSSYNQKFQGKASLTVDRSSSTAYMELHSLTSEDSAVYYCAREFYGYRYFDVWGQGTAVTVSS VL: not shown							Ka (huEphA2-mFc): 3.64e+09 M⁻¹; Kd (huEphA2-mFc): 0.275 nM; Ratio (KD against naked hu2H11) (huEphA2-mFc): 0.9 fold; koff (huEphA2-mFc): 0.00123 s⁻¹; kon (huEphA2-mFc): 4.47e+06 M⁻¹ s⁻¹
hu2H11-R35R74-PEG4-AcNMe-DM4 (DAR 5.4) (antibody, V domains shown, DM4 through PEG4-AcNMe linker on lysine residues, sites not given; average DAR 5.4) VH: QVQLVQSGAEVVKPGASVKISCKASGYTFTAYYMHWVKQSPVQSLEWIGLVNPYNGFSSYNQKFQGKASLTVDRSSSTAYMELHSLTSEDSAVYYCAREFYGYRYFDVWGQGTAVTVSS VL: not shown				36400 pM	217 pM	168	
hu2H11-PEG4-Mal-DM4 (DAR 6.99) (antibody, V domains shown, DM4 through PEG4-Mal linker on lysine residues, sites not given; average DAR 6.99) VH: QVQLVQSGAEVVKPGASVKISCKASGYTFTAYYMHWVKQSPVQSLEWIGLVNPYNGFSSYNQKFQGKASLTVDKSSSTAYMELHSLTSEDSAVYYCAREFYGYRYFDVWGQGTAVTVSS VL: not shown							IC50 (M), cytotoxic activity on Lovo cells (WST8, 5 days) [2]: 1.22e-10 M
hu2H11R35R74-PEG4-NHAc-DM4 (D/A 5.6) (antibody, V domains shown, DM4 through PEG4-NHAc linker on lysine residues, sites not given; average D/A 5.6 per antibody, Antibody-drug conjugate of hu2H11R35R74; constant regions as for m2) VH: QVQLVQSGAEVVKPGASVKISCKASGYTFTAYYMHWVKQSPVQSLEWIGLVNPYNGFSSYNQKFQGKASLTVDRSSSTAYMELHSLTSEDSAVYYCAREFYGYRYFDVWGQGTAVTVSS VL: not shown							Ka (huEphA2-mFc): 3.8e+09 M⁻¹; Kd (huEphA2-mFc): 0.263 nM; Ratio (KD against naked hu2H11) (huEphA2-mFc): 0.9 fold; koff (huEphA2-mFc): 0.00115 s⁻¹; kon (huEphA2-mFc): 4.35e+06 M⁻¹ s⁻¹
